Here are results for 50 molecules from US20250011363A1, “OPTIMIZED SHORTENED PEPTIDE THAT BINDS TO ACETYLCHOLINE RECEPTOR, AND USE THEREOF” (SKINMED CO., LTD., priority 2021, published 2025).

The target in assay [1] is acetylcholine receptor. Nature of the assay: SPR, peptide at 10 uM over immobilized acetylcholine receptor.
Assay [2] deals with acetylcholine receptor. As to the kind of experiment: SPR, AchR immobilized on chip. A general note: Surface plasmon resonance follows binding to a sensor surface in real time, without labels.
The target of assay [3] is acetylcholine receptor. As to the kind of experiment: SPR, AchR immobilised on chip, peptide 10 uM.
Assay [4] has as its target acetylcholine receptor. Nature of the assay: SPR, peptide at 10 µM on acetylcholine receptor.
The target of assay [5] is acetylcholine receptor. Nature of the assay: SPR, receptor immobilized, peptide 10 uM.
Assay [6] concerns the target acetylcholine receptor. As to the kind of experiment: SPR, AchR on chip, peptide 10 uM.

RLICRK [6mer-2-101] yielded a Binding affinity (RU) with acetylcholine receptor [1] of 154 RU.
RQLSKR [6mer-2-79] showed a Binding affinity (RU) with acetylcholine receptor [1] of 135 RU.
As to KGRTKR [6mer-2-90], the Binding affinity (RU) with acetylcholine receptor [1] is 133 RU.
Molecule KWFLRK [6mer-2-69] gave a Binding affinity (RU) in the assay with acetylcholine receptor [1] of 139 RU.
On the same count and under the same terms, to RRIYRK [6mer-2-95] belongs 142 RU.
Consider RRGVRR [6mer-1-210], for which the Binding affinity (RU) in the assay with acetylcholine receptor [2] and in the assay with acetylcholine receptor [3] was 184 RU each time.
For RRQRR [5mer-73], the Binding affinity (RU) with acetylcholine receptor [2] and in the assay with acetylcholine receptor [4] was 179 RU in each case.
In the assay with acetylcholine receptor [1], RKACEK [6mer-1-1200] displayed a Binding affinity (RU) of 21 RU.
Turning to RRVYRK [6mer-2-109], the Binding affinity (RU) in the assay with acetylcholine receptor [1] came out at 144 RU.
In turn, RQRSRR [6mer-2-99] yielded a Binding affinity (RU) in the assay with acetylcholine receptor [1] of 151 RU.
With RGVYRK [6mer-2-107], the Binding affinity (RU) with acetylcholine receptor [1] came out at 144 RU.
Molecule RLYQRK [6mer-2-94] showed a Binding affinity (RU) in the assay with acetylcholine receptor [1] of 126 RU.
Still for that read-out and setting: to KRLLRK [6mer-2-70] belongs 126 RU; to KSQLKK [6mer-2-110], 153 RU; to RWQTRR [6mer-2-93], 133 RU.
On to KLIRRK [6mer-2-111], for which, in the assay with acetylcholine receptor [1], the Binding affinity (RU) is 123 RU.
In turn, RWVQRK [6mer-2-106] showed a Binding affinity (RU) with acetylcholine receptor [1] of 123 RU.
The same measure, in the same setting: with RRQSRK [6mer-2-76] the figure was 142 RU.
RVVYKK [6mer-2-108] returned a Binding affinity (RU) in the assay with acetylcholine receptor [1] of 153 RU.
On the same count and under the same terms, to RGVQKK [6mer-2-82] belongs 124 RU.
In the assay with acetylcholine receptor [1], RRLTKR [6mer-2-87] showed a Binding affinity (RU) of 142 RU.
The same measure, in the same setting: with KQVYKR [6mer-2-71] the figure was 141 RU.
As to RWRYKR [6mer-2-136], in the assay with acetylcholine receptor [2], the Binding affinity (RU) amounted to 194 RU. The molecule further came in with a Binding affinity with acetylcholine receptor [5] of 194 RU.
In the assay with acetylcholine receptor [1], KQQTRR [6mer-2-77] displayed a Binding affinity (RU) of 123 RU.
In the assay with acetylcholine receptor [1], KVYQKK [6mer-2-102] registered a Binding affinity (RU) of 139 RU.
Molecule KRIQKK [6mer-2-72] gave a Binding affinity (RU) in the assay with acetylcholine receptor [1] of 144 RU.
On to RWIYKR [6mer-2-74], for which the Binding affinity (RU) with acetylcholine receptor [1] was 136 RU.
In the case of RRQQRR [6mer-2-98], the Binding affinity (RU) with acetylcholine receptor [1] was 148 RU.
In the case of KQFRRK [6mer-2-86], the Binding affinity (RU) with acetylcholine receptor [1] was determined as 126 RU.
As to RQFYRK [6mer-2-97], the Binding affinity (RU) with acetylcholine receptor [1] amounted to 154 RU.
In the assay with acetylcholine receptor [1], RRVSRR [6mer-2-81] had a Binding affinity (RU) of 121 RU.
In the assay with acetylcholine receptor [1], KSFQRR [6mer-2-88] came in with a Binding affinity (RU) of 141 RU.
The same measure, in the same setting: with KQRYKK [6mer-2-84] the figure was 139 RU; with RRATER [6mer-1-1198], 28 RU.
Same read-out and setting: with KKTNKR [6mer-1-1199] the figure was 39 RU; with KLYTRK [6mer-2-75], 133 RU.
Still for that read-out and setting: with KQYQRR [6mer-2-83] the figure was 135 RU; with KSRSKK [6mer-2-89], 141 RU; with RRQYKR [6mer-2-80], 148 RU.
Turning to RGFTRR [6mer-2-105], the Binding affinity (RU) with acetylcholine receptor [1] worked out at 151 RU.
For the molecule KVVCKR [6mer-2-92], the Binding affinity (RU) in the assay with acetylcholine receptor [1] turned out to be 131 RU.
Take KWRQRK [6mer-2-96]: the Binding affinity (RU) with acetylcholine receptor [1] worked out at 154 RU.
On to KRYLKR [6mer-2-78], for which the Binding affinity (RU) with acetylcholine receptor [1] amounted to 135 RU.
The molecule RVVTKK [6mer-2-103] displayed a Binding affinity (RU) with acetylcholine receptor [1] of 136 RU.
The molecule RRRCRR [6mer-2-100] returned a Binding affinity (RU) in the assay with acetylcholine receptor [1] of 142 RU.
As to KWIYKR [6mer-2-91], the Binding affinity (RU) in the assay with acetylcholine receptor [1] turned out to be 121 RU.
In turn, KSQYKR [6mer-2-85] showed a Binding affinity (RU) with acetylcholine receptor [1] of 137 RU.
In turn, RLYTKR [6mer-2-73] came in with a Binding affinity (RU) in the assay with acetylcholine receptor [1] of 139 RU.
As for RSYSR [5mer-311], the Binding affinity (RU) in the assay with acetylcholine receptor [2] and with acetylcholine receptor [6] was 167 RU in each case.
In turn, RGVCRK [6mer-2-104] showed a Binding affinity (RU) in the assay with acetylcholine receptor [1] of 145 RU.
